B1: huz-LC2G2.2_LC/huz-bmHC2G2.2_eflsIgG1 (antibody, V domains shown)
VH: QVQLVQSGAEVKKPGASVKVSCKASGYTFTSYWMHWVRQAPGQGLERMGNINPSNGGTNYNEKFKSRVTMTVDKSSSTAYMELSSLRSEDTAVYYCARSKNNYVAYYFDYWGQGTLVTVSS
VL: DIQMTQSPSSLSASVGDRVTITCRASENIYYSLAWYQQKPGKAPKLLIYNANSLEDGVPSRFSGSGSGTDFTLTISSLQPEDFATYYCKQAYDVPLTFGQGTKLEIKR
notes: also called huz-2G2.2-A; Huz-2G2.2-A

Assays:
[1] = biological target: Human BMP4 (R&D Systems cat#314-BP) (human) (UniProt P12644); experiment: cell-based or functional assay
huCHRDL-1-DEVD-6xHis = biological target: T1, huCHRDL-1-DEVD-6xHis (human, UniProt Q9BU40 28-456); experiment: KinExA, solution equilibrium, huCHRDL-1-coated beads
T1 construct: also called Human CHRDL-1
T1 sequence: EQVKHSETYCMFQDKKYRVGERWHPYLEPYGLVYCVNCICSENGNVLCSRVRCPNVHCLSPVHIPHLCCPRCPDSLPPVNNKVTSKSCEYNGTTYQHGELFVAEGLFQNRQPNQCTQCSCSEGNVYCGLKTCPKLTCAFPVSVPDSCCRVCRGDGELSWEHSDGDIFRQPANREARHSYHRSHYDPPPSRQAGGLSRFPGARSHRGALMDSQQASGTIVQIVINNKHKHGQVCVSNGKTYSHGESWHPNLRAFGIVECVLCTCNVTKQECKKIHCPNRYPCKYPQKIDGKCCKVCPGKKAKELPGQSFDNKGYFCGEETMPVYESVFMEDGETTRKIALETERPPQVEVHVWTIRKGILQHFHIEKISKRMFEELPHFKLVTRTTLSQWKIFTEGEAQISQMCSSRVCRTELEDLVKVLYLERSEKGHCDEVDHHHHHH
Protocol: Binding of the various anti-CHRDL-1 antibodies to huCHRDL-1-DEVD-6xHis was performed using KinExA technology. The huCHRDL-1 protein was coated onto Reacti-Gel™ 6X (Pierce Biotechnology, Inc., Rockford, Ill.) agarose beads at a concentration of 50 ug protein/mL of beads in 50 mM Na₂CO₃ pH 9.6 for approximately 18 hours at 4° C. The coated beads were then blocked with 1 mg/mL BSA (Sigma-Aldrich, St. Louis, Mo.) in 1 M Tris-HCl, pH 7.5 for 2 hours at 4° C. Antibodies at fixed concentrations were mixed with varying concentrations of huCHRDL-1 in PBS containing 0.1 mg/mL BSA and 0.005% polysorbate 20 (P-20, BIAcore, Inc., Piscataway, N.J.) for at least 12 hours at room temperature. Antibody concentrations were 10 pM, 30 pM, 100 pM and/or 300 pM as appropriate. […] Antibody bound to the beads was quantified using fluorescent DyLight 649-conjugated goat anti-murine IgG (H+L) antibody (Jackson ImmunoResearch, West Grove, Pa.) at 1 ug/mL in Super Block (Pierce Biotechnology, Inc., Rockford, Ill.) for the mouse antibodies, or using AlexaFluor™ 647-conjugated goat anti-human IgG (H+L) at 1 ug/mL for the humanized antibody. […] The dissociation equilibrium constant (KD) can be determined from nonlinear regression analysis of the competition curves using a multiple curve one-site homogeneous binding model provided in the KinExA Pro software (Sapidyne Instruments, Inc., Boise, Id.).

Sequence of Human BMP4 (R&D Systems cat#314-BP) (human) (P12644 293-408 limits assumed): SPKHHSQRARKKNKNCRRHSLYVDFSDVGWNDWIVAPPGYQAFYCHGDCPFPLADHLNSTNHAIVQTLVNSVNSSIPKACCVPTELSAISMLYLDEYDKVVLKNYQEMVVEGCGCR

Molecule | RLU mean, BRE-luciferase reporter in MC3T3-E1-BRE-Luc cells stimulated with BMP4 (TSG present) [1] [RLU] | reduction of RLU mean, BRE-luciferase reporter in MC3T3-E1-BRE-Luc cells stimulated with BMP4 (TSG present) [1] [%] | Kd (huCHRDL-1-DEVD-6xHis) [nM]
Recombinant human CHRDL-1 (R&D Systems cat#1808-NR), Glu22-Cys450 with C-terminal 10xHis tag (from UniProt Q9BU40 28-456) | 62 | 89 | –
muCHRDL-1-DEVD-6xHis (from UniProt Q920C1 23-447) | 254 | 55 | –
B1 | – | – | 0.142

From patent publication US20140271629A1 (Amgen, published 2014)
